The target in experiment [1] is human kallikrein-6, active (human) (UniProt Q92876). Description: enzyme inhibition kinetics.
The target of experiment [2] is yeast-displayed APPI_(M17G/I18F/F34V) (human). Description: flow cytometry on cells.
For experiment [3], the target named is mesotrypsin (Homo sapiens) (UniProt P35030). The following applies: cited from earlier work.

The source of these data is PMC5929103.

UniProt P35030, sequence (P35030 2-304): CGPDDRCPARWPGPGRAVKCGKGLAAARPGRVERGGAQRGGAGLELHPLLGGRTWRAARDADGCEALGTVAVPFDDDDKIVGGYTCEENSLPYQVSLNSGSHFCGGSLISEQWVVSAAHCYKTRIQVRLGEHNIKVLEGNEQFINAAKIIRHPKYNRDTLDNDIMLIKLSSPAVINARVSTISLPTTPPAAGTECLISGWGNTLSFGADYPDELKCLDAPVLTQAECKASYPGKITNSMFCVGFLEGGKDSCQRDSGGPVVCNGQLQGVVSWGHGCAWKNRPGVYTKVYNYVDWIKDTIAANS

What is called Ki is a measure of affinity in units of concentration, obtained from inhibition or displacement. For “APPI_(P13W/M17G/I18F/F34V), soluble form (designed binder)”, the Ki in experiment [1] worked out at 7.6 nM. The Kd is a measure of binding affinity in units of concentration. For “catalytically inactive human mesotrypsin S195A, labelled with DyLight 488 (enzyme)”, the Kd in experiment [2] was 26 nM. Regarding “catalytically inactive human anionic trypsin S195A, labelled with DyLight 650 (enzyme)”, the Kd in experiment [2] is 42 nM. “catalytically inactive human cationic trypsin S195A, labelled with DyLight 650 (enzyme)” displayed a Kd in experiment [2] of 31 nM. The Kd values of the last two substances are within 1.5-fold of each other. In the case of “APPI Kunitz domain (from UniProt P05067)”, in experiment [3], the Ki is 140 nM.
